# According to patent US20230295310A1 (ABCELLERA BIOLOGICS, published 2023):
# Positions count from the first letter of the chain named.
# B1: GOMP001_bsAb_044 (bispecific antibody, human IgG1, kappa, L234A L235A)
# heavy 1: EVQLVESGGGLVKTGGSLRLSCVASGFSFKKAWMNWVRYAPGKGLEWVGRIKRNTDGGTADYAARVKGRFTLSRDDSKKTLFLQMNSLKTEDTAVYYCTTLDSSSYYVGYYYMDVWGRGTTVTVSSASTKGPSVFPLAPSSKSTSGGTAALGCLVKDYFPEPVTVSWNSGALTSGVHTFPAVLQSSGLYSLSSVVTVPSSSLGTQTYICNVNHKPSNTKVDKKVEPKSCDKTHTCPPCPAPEAAGGPSVFLFPPKPKDTLMISRTPEVTCVVVDVSHEDPEVKFNWYVDGVEVHNAKTKPREEQYNSTYRVVSVLTVLHQDWLNGKEYKCKVSNKALPAPIEKTISKAKGQPRRPRVYTLPPSREEMTKNQVSLVCLVKGFYPSDIAVEWESNGQPENNYKTTPPVLDSDGSFFLYSVLTVDKSRWQQGNVFSCSVMHEALHNHYTQKSLSLSPG
# light 1: DIQMTQSPSSVSASVGDRVTITCRASQDINNWLAWYQRKPGDAPKLLIYTASSLQSGVPSRFSGSGSGTDFTLTIGSLQPEDFATYYCQQAHSLPITFGQGTRLEIKRTVAAPSVFIFPPSDEQLKSGTASVVCLLNNFYPREAKVQWKVDNALQSGNSQESVTEQDSKDSTYSLSSTLTLSKADYEKHKVYACEVTHQGLSSPVTKSFNRGEC
# heavy 2: QVQLVQSGAEVKKPGASVKVSCKASGYTFTSHWMHWVRYAPGQGLEWIGEFNPSNGRTNYNEKFKSKATMTVDTSTNTAYMELSSLRSEDTAVYYCASRDYDYDGRYFDYWGRGTLVTVSSASTKGPSVFPLAPSSKSTSGGTAALGCLVKDYFPEPVTVSWNSGALTSGVHTFPAVLQSSGLYSLSSVVTVPSSSLGTQTYICNVNHKPSNTKVDKKVEPKSCDKTHTCPPCPAPEAAGGPSVFLFPPKPKDTLMISRTPEVTCVVVDVSHEDPEVKFNWYVDGVEVHNAKTKPREEQYNSTYRVVSVLTVLHQDWLNGKEYKCKVSNKALPAPIEKTISKAKGQPRRPRVYTLPPSREEMTKNQVSLVCLVKGFYPSDIAVEWESNGQPENNYKTTPPVLDSDGSFFLYSVLTVDKSRWQQGNVFSCSVMHEALHNHYTQKSLSLSPG
# light 2: DIQMTQSPSSLSASVGDRVTITCSASSSVTYMYWYQRKPGDAPKLLIYDTSNLASGVPSRFSGSGSGTDYTFTISSLQPEDIATYYCQQWSSHIFTFGQGTKVEIKRTVAAPSVFIFPPSDEQLKSGTASVVCLLNNFYPREAKVQWKVDNALQSGNSQESVTEQDSKDSTYSLSSTLTLSKADYEKHKVYACEVTHQGLSSPVTKSFNRGEC
# B2: GOMP001_bsAb_055 (bispecific antibody, human IgG1, kappa, L234A L235A)
# heavy 1: QVQLVQSGAEVKKPGASVKVSCKASGYTFTSHWMHWVRKAPGQGLEWIGEFNPSNGRTNYNEEFKSKATMTVDTSTNTAYMELSSLRSEDTAVYYCASRDYDYDGRYFDYWGQGTLVTVSSASTKGPSVFPLAPSSKSTSGGTAALGCLVADYFPEPVTVSWNSGALTSGVHTFPAVLQSSGLYSLSSVVTVPSSSLGTQTYICNVNHKPSNTKVDEKVEPKSCDKTHTCPPCPAPEAAGGPSVFLFPPKPKDTLMISRTPEVTCVVVDVSHEDPEVKFNWYVDGVEVHNAKTKPREEQYNSTYRVVSVLTVLHQDWLNGKEYKCKVSNKALPAPIEKTISKAKGQPREPQVYTLPPSREEMTDNQVSLTCLVKGFYPSDIAVEWESNGQPENNYKTTPPVLMSDGSFFLASKLTVDKSRWQQGNVFSCSVMHEALHNHYTQKSLSLSPG
# light 1: B1 light 2 with D1R, R37D, D41K, E122K, S130R
# heavy 2: EVNLVESGGGLVQPGRSLRLSCAASGFTFDDYTMHWVRYVPGKGLEWVSNISWNSGSLGYADRVKGRFTISRDNAKDSLYLQMNSLRVEDTALYYCAKDSSGYGHYNSYYMDVWGRGTTVTVSSASTKGPSVFPLAPSSKSTSGGTAALGCLVKDYFPEPVTVSWNSGALTSGVHTFPAVLQSSGLYSLSSVVTVPSSSLGTQTYICNVNHKPSNTKVDKKVEPKSCDKTHTCPPCPAPEAAGGPSVFLFPPKPKDTLMISRTPEVTCVVVDVSHEDPEVKFNWYVDGVEVHNAKTKPREEQYNSTYRVVSVLTVLHQDWLNGKEYKCKVSNKALPAPIEKTISKAKGQPRRPRVYTLPPSREEMTKNQVSLVCLVKGFYPSDIAVEWESNGQPENNYKTTPPVLDSDGSFFLYSVLTVDKSRWQQGNVFSCSVMHEALHNHYTQKSLSLSPG
# light 2: DIQMTQSPSSLSASVGDRVTITCRASQSIRNYLNWYQRKPGDAPKVLIYSASSLQSGVPSRFSGSGSGTDFTLTISSLQPEDFASFYCQQTYSTPITFGQGTRLEIKRTVAAPSVFIFPPSDEQLKSGTASVVCLLNNFYPREAKVQWKVDNALQSGNSQESVTEQDSKDSTYSLSSTLTLSKADYEKHKVYACEVTHQGLSSPVTKSFNRGEC
# B3: GOMP001_bsAb_045 (bispecific antibody, human IgG1, kappa, L234A L235A)
# heavy 1: B2 heavy 1
# light 1: B1 light 2 with D1R, R37D, D41K, E122K, S130R
# heavy 2: B2 heavy 1
# light 2: not shown
# B4: GOMP001_bsAb_046 (bispecific antibody, human IgG1, kappa, L234A L235A)
# heavy 1: B2 heavy 1
# light 1: not shown
# heavy 2: B1 heavy 2
# light 2: B1 light 2
# B5: GOMP001_bsAb_049 (bispecific antibody, human IgG1, kappa, L234A L235A)
# heavy 1: B2 heavy 1
# light 1: B1 light 2 with D1R, R37D, D41K, E122K, S130R
# heavy 2: QVQLVESGGGVVQPGRSLRLSCAASGFTFSTYGMHWVRYAPGKGLEWVAVIWYDGSHKYYADRVKGRFTISRDNSKKTLYLQMNSLRAEDTGIYYCARTGISGNMSYFYFDHWGRGILVTVSSASTKGPSVFPLAPSSKSTSGGTAALGCLVKDYFPEPVTVSWNSGALTSGVHTFPAVLQSSGLYSLSSVVTVPSSSLGTQTYICNVNHKPSNTKVDKKVEPKSCDKTHTCPPCPAPEAAGGPSVFLFPPKPKDTLMISRTPEVTCVVVDVSHEDPEVKFNWYVDGVEVHNAKTKPREEQYNSTYRVVSVLTVLHQDWLNGKEYKCKVSNKALPAPIEKTISKAKGQPRRPRVYTLPPSREEMTKNQVSLVCLVKGFYPSDIAVEWESNGQPENNYKTTPPVLDSDGSFFLYSVLTVDKSRWQQGNVFSCSVMHEALHNHYTQKSLSLSPG
# light 2: not shown
# B6: GOMP001_bsAb_050 (bispecific antibody, human IgG1, kappa, L234A L235A)
# heavy 1: B5 heavy 2
# light 1: not shown
# heavy 2: B1 heavy 2
# light 2: B1 light 2
# B7: GOMP001_bsAb_051 (bispecific antibody, human IgG1, kappa, L234A L235A)
# heavy 1: B2 heavy 1
# light 1: B1 light 2 with D1R, R37D, D41K, E122K, S130R
# heavy 2: LRSDDTAVYYCARGVRGNYYYYYMDVWGRGTTVTVSSASTKGPSVFPLAPSSKSTSGGTAALGCLVKDYFPEPVTVSWNSGALTSGVHTFPAVLQSSGLYSLSSVVTVPSSSLGTQTYICNVNHKPSNTKVDKKVEPKSCDKTHTCPPCPAPEAAGGPSVFLFPPKPKDTLMISRTPEVTCVVVDVSHEDPEVKFNWYVDGVEVHNAKTKPREEQYNSTYRVVSVLTVLHQDWLNGKEYKCKVSNKALPAPIEKTISKAKGQPRRPRVYTLPPSREEMTKNQVSLVCLVKGFYPSDIAVEWESNGQPENNYKTTPPVLDSDGSFFLYSVLTVDKSRWQQGNVFSCSVMHEALHNHYTQKSLSLSPG
# light 2: EIVLTQSPDFQSVTPKEKVTITCRASQSIGSKLHWYQRKPDDSPKLLIKYASQSFSGVPSRFSGSGSGTDFNLTINSLEAEDAATFYCHQSSGLPYTFGQGTKLEIKRTVAAPSVFIFPPSDEQLKSGTASVVCLLNNFYPREAKVQWKVDNALQSGNSQESVTEQDSKDSTYSLSSTLTLSKADYEKHKVYACEVTHQGLSSPVTKSFNRGEC
# Molecular target: human EGFR, C-terminal eGFP-tagged, on CHO-K1 cells (human, UniProt P00533 25-1210)
# Experiment: cell-based or functional assay
"EC50 CHO-K1 EGFR Low (nM); T cell activation bioassay, luciferase [nM]","EC50 CHO-K1 EGFR Med (nM); T cell activation bioassay, luciferase [nM]",Binder
0.0136,0.0041,B1
0.119,0.0139,B2
0.071,0.00792,B3
0.02,0.00409,B4
,0.138,B5
1.67,0.0606,B6
1.23,0.0922,B7
